Assay results taken from publication PMC2802452.

Biological target: HLA-A2-mCFP (human)
Experiment: FRET or BRET

B1: Bap31-mYFP-KKEE (natural protein)
chain: MSLQWTAVATFLYAEVFVVLLLCIPFISPKRWQKIFKSRLVELLVSYGNTFFVVLIVILVLLVIDAVREIRKYDDVTEKVNLQNNPGAMEHFHMKLFRAQRNLYIAGFSLLLSFLLRRLVTLISQQATLLASNEAFKKQAESASEAAKKYMEENDQLKKGAAVDGGKLDVGNAEVKLEEENRSLKADLQKLKDELASTKQKLEKAENQVLAMRKQSEGLTKEYDRLLEEHAKLQAAVDGPMDKKEE
  FRET efficiency at A:D of 1: 5%
  fold FRET at A:D 1:1 after feeding Tax peptide, against controls: 2 fold
